Reference: PMC4975481

B1: DSTL096 (VHH)
VHH: RVDQTPRSVTKETGESLTINCVLRDASYAVGSTCWYRKKSGSTNEESISKGGRYVETVNSGSKSFSLRINDLTVEDGGTYRCGVSTYNWCGVRGLGCVHGACGDGTAVTVN
B2: SK to RI (VHH)
VHH: TRVDQTPRTATKETGESLTINCVLRDASYAVGSTCWFRKNPGTTDEERISIGGRYVESVNKGAKSFSLRIKDLTVADSATYYCGVSTYNWCGVRGLGCVHGACGDGTALTVK
B3: ES to WR (VHH)
VHH: TRVDQTPRTATKETGESLTINCVLRDASYAVGSTCWFRKNPGTTDWERISKGGRYVESVNKGAKSFSLRIKDLTVADSATYYCGVSTYNWCGVRGLGCVHGACGDGTALTVK
B4: SP15-096-13 (VHH)
VHH: TRVDQTPRTATKETGESLTINCVLRDASYAVGSTCWFRKNPGTTDWERISIGGRYVESVNKGAKSFSLRIKDLTVADSATYYCGVSTYNWCGVRGLGCVHGACGDGTALTVK
B5: SP15-096-123 (VHH)
VHH: TRVDQTPRTATKETGESLTINCVLRDASYAVGSTCWFRKNPGTTDEESISKGGRYVESVNKGAKSFSLRIKDLTVADSATYYCGVSTYNWCGVRGLGCVHGACGDGTALTVK
B6: S to R (VHH)
VHH: TRVDQTPRTATKETGESLTINCVLRDASYAVGSTCWFRKNPGTTDEERISKGGRYVESVNKGAKSFSLRIKDLTVADSATYYCGVSTYNWCGVRGLGCVHGACGDGTALTVK
B7: EK to WI (VHH)
VHH: TRVDQTPRTATKETGESLTINCVLRDASYAVGSTCWFRKNPGTTDWESISIGGRYVESVNKGAKSFSLRIKDLTVADSATYYCGVSTYNWCGVRGLGCVHGACGDGTALTVK
B8: E to W (VHH)
VHH: TRVDQTPRTATKETGESLTINCVLRDASYAVGSTCWFRKNPGTTDWESISKGGRYVESVNKGAKSFSLRIKDLTVADSATYYCGVSTYNWCGVRGLGCVHGACGDGTALTVK
B9: K to I (VHH)
VHH: TRVDQTPRTATKETGESLTINCVLRDASYAVGSTCWFRKNPGTTDEESISIGGRYVESVNKGAKSFSLRIKDLTVADSATYYCGVSTYNWCGVRGLGCVHGACGDGTALTVK

Target: Ebola virus nucleoprotein, recombinant construct consisting of the C-terminal portion of NP (Ebola virus (EBOV; formerly the Zaire ebolavirus))
Test: SPR; ProteOn XPR36; […] (10 mM acetate pH 5.0); […]; Langmuir model

Chain of Ebola virus nucleoprotein, recombinant construct consisting of the C-terminal portion of NP (Ebola virus (EBOV; formerly the Zaire ebolavirus)) (P18272 641-739 limits assumed): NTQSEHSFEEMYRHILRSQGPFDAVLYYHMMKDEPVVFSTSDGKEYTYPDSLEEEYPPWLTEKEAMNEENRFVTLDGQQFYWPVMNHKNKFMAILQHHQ

Row | Binder | Kd [nM]
1 | B1 | 0.39
2 | B2 | 22
3 | B3 | 12
4 | B4 | 27
5 | B5 | 0.37
6 | B6 | 2.3
7 | B7 | 3.6
8 | B8 | 0.34
9 | B9 | 2.2
